Reference: the supplement of paper PMC7877785
± gives the uncertainty stated by the source.

Assay: self-splicing fitness, log relative to wild type (ln ratio); higher = more splicing; Tetrahymena group I intron in knt gene, E. coli kanamycin selection, DiMSum; sequences stand for … in CUCUCU…GGAGGGAAAAGUUAUCAGGCAUGCACCUGGUAGCUAGUCUUUAAACCAAUAGAUUGCAUCGGUUUAAAAGGCAAGACCGUCAAAUUGCGGGAAAGGGGUCAACAGCCGUUCAGUACCAAGUCUCAGGGGAAACUUUGAGAUGGCCUUGCAAAGGGUAUGGUAAUAAGCUGACGGACAUGGUCCUAACCACGCAGCCAAGUCCUAAGUCAACAGAUCUUCUGUUGAUAUGGAUGCAGUUCACAGACUAAAUGUCGGUCGGGGAAGAUGUAUUCUUCUCAUAAGAUAUAGUCGGACCUCUCCUUAAUGGGAGCUAGCGGAUGAAGUGAUGCAACACUGGAGCCGCUGGGAACUAAUUUGUAUGCGAAAGUAUAUUGAUUAGUUUUGGAGUACUCGUGGUCG
Procedure, shortened: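 A randomised library covering all eight P1ex-region intron nucleotides was built with the intron in the knt kanamycin-resistance gene on pET-22b(+) and held in E. coli BL21(DE3). Cells were grown overnight at 37°C or 30°C on LB agar, with or without 25 μg/mL kanamycin, plus 100 μg/mL carbenicillin, 50 μM IPTG and 0.2% rhamnose, and pooled colonies were amplicon-sequenced on an Illumina HiSeq 2500. DiMSum fitness is the error-weighted combination of wild-type-normalised replicate fold changes, kanamycin versus none.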

Sequence	self-splicing fitness (ln) (30 °C)	self-splicing fitness (ln) (37 °C)
CAAGAGCAAUAUUACGGGCG	-0.815 ± 0.1	-0.188 ± 0.12
CAAGAGCAAUAUUACGGGGA	-3.21 ± 0.32	-2.67 ± 0.28
CAAGAGCAAUAUUACGGUCA	-2.4 ± 0.19	-2.45 ± 0.23
CAAGAGCAAUAUUACGUACG	-0.91 ± 0.084	0.0935 ± 0.11
CAAGAGCAAUAUUACGUAGA	-3.55 ± 0.17	-2.76 ± 0.24
CAAGAGCAAUAUUACGUCCG	-1.66 ± 0.087	-0.696 ± 0.13
CAAGAGCAAUAUUACGUGAU	-3.6 ± 0.21	-2.34 ± 0.22
CAAGAGCAAUAUUACGUGGA	-3.87 ± 0.28	-2.43 ± 0.15
CAAGAGCAAUAUUACGUUAC	-2.55 ± 0.12	-2.71 ± 0.23
CAAUAGCAAUAUUACGAAGA	-3.96 ± 0.39	-1.31 ± 0.2
CAAUAGCAAUAUUACGACGA	-2.18 ± 0.22	-1.24 ± 0.14
CAAUAGCAAUAUUACGAGUA	-2.31 ± 0.21	-2.38 ± 0.2
CAAUAGCAAUAUUACGAGUU	-3.64 ± 0.2	-2.19 ± 0.2
CAAUAGCAAUAUUACGAUAG	-0.926 ± 0.069	-0.00227 ± 0.1
CAAUAGCAAUAUUACGAUCC	-2.68 ± 0.46	
CAAUAGCAAUAUUACGCCUG	-0.752 ± 0.075	0.366 ± 0.088
CAAUAGCAAUAUUACGCGGG	-3.11 ± 0.16	-1.75 ± 0.12
CAAUAGCAAUAUUACGCGUC	-4.09 ± 0.25	-3 ± 0.22
CAAUAGCAAUAUUACGCUUU	-4.34 ± 0.27	-2.2 ± 0.19
CAAUAGCAAUAUUACGGUCC	-3.21 ± 0.38	-2.34 ± 0.39
CAAUAGCAAUAUUACGGUUA	-1.4 ± 0.12	-1.24 ± 0.1
CAAUAGCAAUAUUACGUAUU	-3.25 ± 0.21	-2.65 ± 0.18
CAAUAGCAAUAUUACGUCAU	-3.6 ± 0.14	-2.88 ± 0.17
CAAUAGCAAUAUUACGUCGU	-3.95 ± 0.23	-2.49 ± 0.19

Sequence	self-splicing fitness (ln) (30 °C)	self-splicing fitness (ln) (37 °C)
CAAUAGCAAUAUUACGUGGU	-3.82 ± 0.17	-2.53 ± 0.18
CACAAGCAAUAUUACGAACA	-2.61 ± 0.18	-1.72 ± 0.12
CACAAGCAAUAUUACGAGCU	-3.48 ± 0.24	-3.29 ± 0.3
CACAAGCAAUAUUACGAGGG	-2.28 ± 0.12	-2.48 ± 0.14
CACAAGCAAUAUUACGAUUU	-4.17 ± 0.18	-2.56 ± 0.15
CACAAGCAAUAUUACGCACU	-2.4 ± 0.13	-1.33 ± 0.11
CACAAGCAAUAUUACGCAGG	-2.65 ± 0.15	-1.01 ± 0.13
CACAAGCAAUAUUACGCAGU	-3.4 ± 0.2	-2.37 ± 0.16
CACAAGCAAUAUUACGCAUC	-3.19 ± 0.18	-2.29 ± 0.18
CACAAGCAAUAUUACGCAUU	-2.9 ± 0.096	-2.5 ± 0.14
CACAAGCAAUAUUACGCGCG	-0.772 ± 0.066	-0.607 ± 0.071
CACAAGCAAUAUUACGCUAA	-2.58 ± 0.18	-1.82 ± 0.16
CACAAGCAAUAUUACGCUCC	-1.93 ± 0.16	-1.66 ± 0.22
CACAAGCAAUAUUACGGGAA	-3.21 ± 0.16	-2.79 ± 0.17
CACAAGCAAUAUUACGUAAG	-0.372 ± 0.047	0.157 ± 0.065
CACAAGCAAUAUUACGUAGA	-1.83 ± 0.081	-1.73 ± 0.11
CACAAGCAAUAUUACGUGGG	-3.94 ± 0.16	-2.42 ± 0.12
CACAAGCAAUAUUACGUGGU	-4.1 ± 0.17	-2.66 ± 0.19
CACAAGCAAUAUUACGUUCG	-0.461 ± 0.048	0.012 ± 0.06
CACAAGCAAUAUUACGUUGC	-3.28 ± 0.1	-2.66 ± 0.13
CACCAGCAAUAUUACGAACA	-3.14 ± 0.17	-0.953 ± 0.14
CACCAGCAAUAUUACGACAA	-2.61 ± 0.23	-2.73 ± 0.2
CACCAGCAAUAUUACGACUU	-3.4 ± 0.14	-2.69 ± 0.13
CACCAGCAAUAUUACGAGCC	-3.37 ± 0.27	-2.92 ± 0.32

Sequence	self-splicing fitness (ln) (30 °C)	self-splicing fitness (ln) (37 °C)
CACCAGCAAUAUUACGAGUA	-1.04 ± 0.06	-0.515 ± 0.066
CACCAGCAAUAUUACGAUAG	-0.377 ± 0.057	0.0494 ± 0.064
CACCAGCAAUAUUACGAUGU	-3.07 ± 0.12	-0.91 ± 0.085
CACCAGCAAUAUUACGCACG	-0.655 ± 0.045	0.0962 ± 0.062
CACCAGCAAUAUUACGCCAC	-3.58 ± 0.16	-2.42 ± 0.17
CACCAGCAAUAUUACGCCUA	-2.37 ± 0.16	-1.52 ± 0.17
CACCAGCAAUAUUACGCUCA	-1.42 ± 0.12	-1.13 ± 0.17
CACCAGCAAUAUUACGGAAA	-1.63 ± 0.1	-2.03 ± 0.14
CACCAGCAAUAUUACGGACA	-2.01 ± 0.1	-0.603 ± 0.086
CACCAGCAAUAUUACGGCCU	-2.6 ± 0.16	-1.93 ± 0.16
CACCAGCAAUAUUACGGCUC	-1.44 ± 0.075	-0.828 ± 0.087
CACCAGCAAUAUUACGGGAG	-2.61 ± 0.067	-1.26 ± 0.076
CACCAGCAAUAUUACGGGCA	-1.29 ± 0.069	-0.343 ± 0.081
CACCAGCAAUAUUACGGGUA	-0.28 ± 0.045	-0.404 ± 0.055
CACCAGCAAUAUUACGGGUC	-2.54 ± 0.07	-2.17 ± 0.092
CACCAGCAAUAUUACGGUGU	-3.39 ± 0.11	-1.82 ± 0.12
CACCAGCAAUAUUACGUAAC	-2.87 ± 0.13	-0.914 ± 0.14
CACCAGCAAUAUUACGUGAC	-4.86 ± 0.26	-2.34 ± 0.21
CACCAGCAAUAUUACGUGUG	-4.45 ± 0.17	-3.63 ± 0.19
CACCAGCAAUAUUACGUUAC	-4.48 ± 0.26	-2.45 ± 0.18
CACGAGCAAUAUUACGAGCG	-0.857 ± 0.086	-1.33 ± 0.1
CACGAGCAAUAUUACGAGGG	-3.64 ± 0.25	-3.25 ± 0.33
CACGAGCAAUAUUACGAUAC	-3.07 ± 0.24	-2.73 ± 0.36
CACGAGCAAUAUUACGAUGU	-3.52 ± 0.18	-3.49 ± 0.24

Sequence	self-splicing fitness (ln) (30 °C)	self-splicing fitness (ln) (37 °C)
CACGAGCAAUAUUACGAUUA	-3.34 ± 0.31	-2.12 ± 0.25
CACGAGCAAUAUUACGAUUG	-2.19 ± 0.11	-1.6 ± 0.13
CACGAGCAAUAUUACGAUUU	-3.18 ± 0.18	-1.99 ± 0.13
CACGAGCAAUAUUACGCAUA	-3.1 ± 0.15	-2.61 ± 0.18
CACGAGCAAUAUUACGCGGU	-3.13 ± 0.15	-3.5 ± 0.24
CACGAGCAAUAUUACGCUUA	-2.83 ± 0.32	-0.611 ± 0.12
CACGAGCAAUAUUACGGCCC	-3.09 ± 0.28	-2.95 ± 0.36
CACGAGCAAUAUUACGGCCG	-0.354 ± 0.094	-0.105 ± 0.13
CACGAGCAAUAUUACGGCGA	-3.28 ± 0.19	-2.69 ± 0.26
CACGAGCAAUAUUACGGCUG	-1.39 ± 0.089	-0.237 ± 0.11
CACGAGCAAUAUUACGGGAC	-3.36 ± 0.2	-2.55 ± 0.23
CACGAGCAAUAUUACGGGUU	-3.2 ± 0.16	-2.81 ± 0.22
CACGAGCAAUAUUACGUAGG		-1.83 ± 0.21
CACGAGCAAUAUUACGUCGA	-2.23 ± 0.35	-2.81 ± 0.26
CACGAGCAAUAUUACGUGAU	-3.91 ± 0.14	-2.05 ± 0.14
CACUAGCAAUAUUACGAAGC		-2.83 ± 0.35
CACUAGCAAUAUUACGACAG	-0.114 ± 0.076	0.0358 ± 0.079
CACUAGCAAUAUUACGAGGG	-3.29 ± 0.18	-1.34 ± 0.15
CACUAGCAAUAUUACGCAAC		-2.5 ± 0.29
CACUAGCAAUAUUACGCAGG	-3.27 ± 0.12	-1.26 ± 0.15
CACUAGCAAUAUUACGCGCU	-3.62 ± 0.16	-2.09 ± 0.14
CACUAGCAAUAUUACGCGGC	-3.47 ± 0.28	-2.97 ± 0.25
CACUAGCAAUAUUACGGCUG	-0.972 ± 0.054	0.114 ± 0.065
CACUAGCAAUAUUACGGGCG	-0.464 ± 0.087	-0.0972 ± 0.084
